# Source: article PMC10110401, “HuR modulation counteracts lipopolysaccharide response in murine macrophages”
# Molecular target: HuR M1M2 (rM1M2_HuR) (UniProt Q15717 20-186)
# Experiment: HTRF; 20 nM protein, 50 nM probe; hook point titration 0-500 nM protein; TM7nox inhibits with IC50 0.7956 uM (small-molecule value); REMSA: 3.7 nM (or 100 nM) protein, 1 nM probe, 30 min, 4% native PAGE, buffer not given; HTRF: 20 nM protein, 50 nM probe, buffer not given; pull-down: lysis in 20 mM Tris-HCl pH 7.5, 100 mM KCl, 5 mM MgCl2, 0.5% NP-40, probe 0.5 uM in TENT (20 mM Tris-HCl pH 8.0, 2 mM EDTA, 500 mM …)
# Settings: protein: recombinant; tags: His-tag; label: biotin; single strand
# Sequence of HuR M1M2 (rM1M2_HuR) (Q15717 20-186): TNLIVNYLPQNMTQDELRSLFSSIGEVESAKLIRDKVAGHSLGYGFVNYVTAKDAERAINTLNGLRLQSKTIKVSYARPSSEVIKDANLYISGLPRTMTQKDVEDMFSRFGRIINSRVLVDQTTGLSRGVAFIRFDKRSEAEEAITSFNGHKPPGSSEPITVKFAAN
binder,measurement,value
"AUUAUUUAUUAUUUAUUUAUUAUUUA (ssRNA, 5'-biotin) [Bi-TNF ARE probe]",binding result,binds
